Reference: the nanobody polyreactivity screen of Harvey et al. (2022)

assay: yeast display, Sf9 membrane polyspecificity reagent, FACS + sequencing; frameworks hold sequencing errors
Outline: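 Using colony PCR, genes from sorted yeast display clones were amplified, then sequenced on MiSeq at 2 × 250 and filtered by CDR length. The clones had been stained with 10% biotinylated, detergent-solubilized Sf9 membrane reagent for 1 hour at 4 °C and sorted by FACS into low and high (top ~1%) gates on anti-HA and streptavidin fluorescence. Polyreactivity labels come from the gate of origin.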

Sequence	polyreactivity (PSR sort gate)
QVQLVESGGGLVQAGGSLRLSCAASGRIFRKYAMGWYRQAPGKERELVAAINWSGGSTYYADSVKGRFTISRDNAKNTVYLQMNSLKPEDTAVYYCAARSPKAERDYWGQGTQVTVSS	high polyreactivity
QVQLVESGGGLVQAGGSLRLSCAASGRIFRKYAMGWYRQAPGKERELVAAISGSGGSTTYADSVKGRFTISRDNAKNTVYLQMNSLKPEDTAVYYCAARGYSLYGYPYYYWGQGTQVSVSS	high polyreactivity
QVQLVESGGGLVQAGGSLRLSCAASGRIFRKYAMGWYRQAPGKERELVAGITWRGTSTYYADSVKGRFTISRDNAKNTVYLQMNSLKPEDTAVYYCAAEWKGYYVHDYWGQGTQVTVSS	high polyreactivity
QVQLVESGGGLVQAGGSLRLSCAASGRIFRKYTMGWYRQAPGKERELVAAITWSGGSTYYADSVKGRFTISRDNAKNTVYLQMNSLKPEDTAVYYCAARSIGGYRAVDTYYYWGHGTQVTVSS	high polyreactivity
QVQLVESGGGLVQAGGSLRLSCAASGRIFRKYVMGWYRQAPGKERELVASITTSGDSTYYADSVKGRFTISRDNAKNTVYLQMNSLKPEDTAVYYCAARSYRGRRYDYWGQGTQVTVSS	high polyreactivity
QVQLVESGGGLVQAGGSLRLSCAASGRIFRLYAMGWYRQAPGKEREFVATITWIGGRTYYADSVKGRFTISRDTAKNTVYLQMNSLKPEDTAVYYCAADPGYTYEYWGQGTQVTVSS	low polyreactivity
QVQLVESGGGLVQAGGSLRLSCAASGRIFRLYVMGWYRQAPGKERELVATISSRGGSTYYADSVKGRFTISRDNAKNTVYLQMNSLKPEDTAVYYCAAVSRYRYGYDYWGQGTQVTVSS	high polyreactivity
QVQLVESGGGLVQAGGSLRLSCAASGRIFRPYAMGWYRQAPGKERELVASMSWRGSSTYYADSVKGRFTISRDNAQNTVYLQMNSLKPEDTAVYYCAARRYPTSGYGYWGQGTQVTVSS	high polyreactivity
QVQLVESGGGLVQAGGSLRLSCAASGRIFRPYTMVWSRQAPGKERELVAAINSSGGRTYYADSVKGRFTISRDNAKNTVYLEMNSLKPEDTAVYYCAVGWVFYRASNMNYWGQGTQVTVSS	high polyreactivity
QVQLVESGGGLVQAGGSLRLSCAASGRIFRQKAMGWYRQAPGKERELVASISSGGNTYYADSVKGRFTISRDNAKNNVYLQMNSLKPEDTAVYYCAAAKQRYYRWWTTPGYDYWGQGTQVTVSS	low polyreactivity
QVQLVESGGGLVQAGGSLRLSCAASGRIFRRNAMGWSRQAPGNERELVAAISSSGGRTYYADSVKGRFTISRDNAKNTVYLEMNSLKPEDTAVYYCAARIRTVAHVDYDYWGQGTQVTVSS	high polyreactivity
QVQLVESGGGLVQAGGSLRLSCAASGRIFRRNAMGWYRQAPGKERDLVAAITYSGTRTYYADSVKGRFTISRDNAKITVYLQMNSLKPEDTAVYYCNAGVGYFVGTYYGFLPYDYWGQGTQVTVSS	high polyreactivity
QVQLVESGGGLVQAGGSLRLSCAASGRIFRRNAMGWYRQAPGKEREFVATITSGGSTFYADSVKGRFTISRDNAKNTVYLQMNSLIPEDTAVYYCAAPYYNTPFHTPNYSWGQGTQVTVSS	low polyreactivity
QVQLVESGGGLVQAGGSLRLSCAASGRIFRRNAMGWYRQAPGKERELVAAISTRGSSTYYADSVKGRFTISRDNAKNTVYLQMNSLKPEDTAVYYCAADAYFIYSRYWYDYWGQGTQVTVSS	high polyreactivity
QVQLVESGGGLVQAGGSLRLSCAASGRIFRRNVMGWYRQAPGKERELVAAITGSGSSTYYADSVKGRFTISRDNAKNTVYLQMNSLKPVDTAVYYCATKWRFKLGDYWGQGTQVTVSS	high polyreactivity
QVQLVESGGGLVQAGGSLRLSCAASGRIFRRYAMGWYRQAPGKERELVAAINGRGTTTYYADSVKGRFTISRDNAKNTVYLQMNSLKPEDTAVYYCAAENTIRYDREYDYWGQGNQVTVSS	high polyreactivity

Sequence	polyreactivity (PSR sort gate)
QVQLVESGGGLVQAGGSLRLSCAASGRIFRRYAMGWYRQAPGKERELVAAISSTGGNTYYADSVKGRFTISRDNAKNTVYLQMNSLKPEDTAVYYCATRAFYLRGNGYWGQGTQVTVSS	high polyreactivity
QVQLVESGGGLVQAGGSLRLSCAASGRIFRSNAIGWYRQAPGKERELVSVITWCGGSTYYADSVKGRFTITRDTAKNTVYIQMNSLKPEDTAVYYCAKRRAAVNGRSYYYYWGQGTQVTVSS	high polyreactivity
QVQLVESGGGLVQAGGSLRLSCAASGRIFRSNAMGWYRQAPGKERELVATITSSGGRTYYADSVKGRFTISRDNAKNTVYLQMNSLKPEDTAVYYCNAQQRTRGQKAQWVRDEYWGQGTQVTVSS	low polyreactivity
QVQLVESGGGLVQAGGSLRLSCAASGRIFRSNTMGWYRQAPGKERELVAAITRRGGSTYYADSVKGRFTISRDNAKNTVYLQLNSLKPEDTAVYYCAAVKSYYSEYGYWGQGTQGTVSS	high polyreactivity
QVQLVESGGGLVQAGGSLRLSCAASGRIFRSYAMGWSIQAPGKERELVAAITSGGSTNYADSVKGRFTISRDNAKNTVYLQMNSLKPEDTAVYYCAARWPWYGKLRYYYWGQGTQVTVSS	high polyreactivity
QVQLVESGGGLVQAGGSLRLSCAASGRIFRSYAMGWYRQAPGKERELFAAISYSGGSTYYADSVKGRFTISRDNAKNTVYLQMNSLKPEDTAVYYCAALPGERKYIYYGYDYWGQGTQVTVSS	high polyreactivity
QVQLVESGGGLVQAGGSLRLSCAASGRIFRSYAMGWYRQAPGKERELVAAISSGGSTNYADSVKGRFTISRDNAKNTVYLQMNSLKPEDTAVYYCAASYLYEWSRFVYDGLYYWGQGTQVTVSS	low polyreactivity
QVQLVESGGGLVQAGGSLRLSCAASGRIFRSYAMGWYRQAPGKERELVASISWSGVSTSYADSVKGRFTISRDIAKNTVYLQMNSLKPEDTAVYFCAARSWYVGSGPFNYWGQGTQVTVSS	high polyreactivity
QVQLVESGGGLVQAGGSLRLSCAASGRIFRTYAMGWYRQAPGKERELVAAINSGGTTYYADSVKGRFTISRDNAKNTVYLQMNSLKPEDTAVYYCNAEYYYAFLRLWYDYWGQGTQVTVSS	high polyreactivity
QVQLVESGGGLVQAGGSLRLSCAASGRIFRTYTMGWYRQAPGKERELVAAITSGSSTYYADSVKGRFTISRDNAKNTVYLQMHSLKPEDTAVYYCATEWSIGRHLYTYNYWGPGTQVTVSS	high polyreactivity
QVQLVESGGGLVQAGGSLRLSCAASGRIFRVNAMGWYRQAPGKERELVAAINFSGTSTYYADSVKGRFTISRDNAKNTVYLQMNSLKPEDTAVYYCNTASYVSWYVHYYYWGQGTQVTVSS	low polyreactivity
QVQLVESGGGLVQAGGSLRLSCAASGRIFRVNAMGWYRQAPGKERELVAAISWIGGRTYYADSVKGRFTISRDNAKNTVYLQMNSQKPEDTAVYYCAAVGSSSTHWASRSYRYNYWGQGTQVTVSS	high polyreactivity
QVQLVESGGGLVQAGGSLRLSCAASGRIFRVNGMGWDRQAPGKERELVAAIRRSGGSTYYADSVKGRFTISRDNAKNTVYLQMNSLKPEDTAVYYCAAPVRQSSYTRYDSWGQGTQVTVSS	high polyreactivity
QVQLVESGGGLVQAGGSLRLSCAASGRIFRVYAMGWYRHAPGKERELVAAISGRGGSTTYADSVKGRFTISRDNAKNTVYLQMNSLKPEDTAVYYCNTAYLAKRSGRRRFNYWGHGTQVTVSS	low polyreactivity
QVQLVESGGGLVQAGGSLRLSCAASGRIFRVYAMGWYRQAPGKERELVAAISWSGGRTYYADSVKGRFTISRDNAKNTVYLQMNSLKPEDTAVYYCAAVRYERGLWSDYWGQGTQVTVSS	high polyreactivity
